Assay results: patent publication US20200071394A1
Where two headings read alike, the source gives them in different places.

How the values were obtained:
[1] = target: Recombinant Human IL-17A, Sino Biological, 12047-HNAS (human) (UniProt Q16552); assay: cell-based or functional assay
[2] = target: Recombinant Human IL-17A, Sino Biological, 12047-HNAS (human) (UniProt Q16552); assay: indirect ELISA, human IL-17A coated
[3] = target: Recombinant Human IL-17A, Sino Biological, 12047-HNAS (human) (UniProt Q16552); assay: indirect ELISA, human IL-17A coated; remark: listed apart in the source
[4] = target: Recombinant Human IL-17A, Sino Biological, 12047-HNAS (human) (UniProt Q16552); assay: SPR (Biacore), antibody captured by anti-human antibody on the chip, IL-17A as analyte, 1:1 model

Sequence of Recombinant Human IL-17A, Sino Biological, 12047-HNAS (human) (Q16552 24-155 limits assumed, form in doubt): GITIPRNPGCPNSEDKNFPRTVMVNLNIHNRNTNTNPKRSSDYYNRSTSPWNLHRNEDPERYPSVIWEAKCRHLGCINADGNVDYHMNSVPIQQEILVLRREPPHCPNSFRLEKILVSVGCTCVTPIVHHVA

IC50 of IL-6 release by HT1080 cells stimulated with IL-17A and TNFα [1]: 0.52 µg/mL
IC80 of IL-6 release by HT1080 cells stimulated with IL-17A and TNFα [1]: 2.11 µg/mL
IC90 of IL-6 release by HT1080 cells stimulated with IL-17A and TNFα [1]: 4.8 µg/mL
EC50 [2]: 0.0341 µg/mL
EC50 [3]: 0.0329 µg/mL
Kd [4]: 0.111 nM
koff [4]: 0.000161 s⁻¹
kon [4]: 1.46e+06 M⁻¹ s⁻¹
Substance: Novartis humanized anti-IL-17 antibody (Novartis mAb)
